Data on seven molecules can be found in patent US20120207759A1 (WASHINGTON UNIVERSITY, published 2012).

Experiment [1] addresses T1, human HVEM expressed on transduced BJAB cells (full length) (human, UniProt Q92956 39-283).
T1 construct: also called hHVEM; hHVEM-IRES-GFP
T1 sequence: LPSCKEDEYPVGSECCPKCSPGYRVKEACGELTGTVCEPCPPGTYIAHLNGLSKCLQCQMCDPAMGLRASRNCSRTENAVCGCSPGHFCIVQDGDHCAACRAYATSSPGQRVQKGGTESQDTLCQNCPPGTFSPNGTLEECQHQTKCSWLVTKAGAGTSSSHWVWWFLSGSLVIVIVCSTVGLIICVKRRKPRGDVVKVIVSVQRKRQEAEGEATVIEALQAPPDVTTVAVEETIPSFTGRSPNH
The experiment can be described thus: flow cytometry on transduced BJAB cells. From the text: (§1) FIG. 36 HVEM is a ligand for BTLA. (A) NIH 3T3 cells and BJAB cells were transduced with splenocyte cDNA libraries and were directly stained with anti-Thy1.1-FITC and the C57BL/6 BTLA tetramer-phycoerythrin (Before sorting). These cells were sorted for the highest 0.5% population of BTLA tetramer staining with BTLA-phycoerythrin tetramer and Thy1.1-FITC and were subjected to an additional three rounds of similar sequential purification. After the fourth round of sorting, cell populations were expanded and cells were stained (After sorting). Numbers in each quadrant indicate the percentage of live cells in the indicated gate. (B) BJAB cells were transduced with the retroviruses mHVEM-IRES-GFP (mHVEM; mouse), hHVEM-IRES-GFP (hHVEM; human), 4-1 BB-IRES-GFP (4-1 BB; mouse) and LTβR-1RES-GFP (LTβR; mouse) and were stained with C57BL/6 BTLA tetramer-phycoerythrin or BALB/c BTLA tetramer-phycoerythrin. Numbers in dot plots indicate the percentage of BTLA tetramer staining in the GFP-positive population. (C, D) HVEM activates BTLA phosphorylation and SHP-2 association. EL-4 cells (EL4), BJAB cells expressing GFP (BJAB-GFP) or BJAB cells expressing mouse HVEM (BJAB-mHVEM) were added (+) or not added (−) for 4 min at 37° C. at a density of 25×10⁶ cells/ml. Cells were left untreated (−) or were treated (+) with pervanadate (VO₄) for 4 min. Total cell lysates were prepared and were immunoprecipitated with 6A6 (anti-mouse BTLA), and immunoblots were probed for SHP-2 (C) or for phosphotyrosine (D) in immunoprecipitates (IP) or in lysates without immunoprecipitation. Immunoblots using the isotype control for immunoprecipitation were negative for SHP-2 association (data not shown). Data in C and d are representative of four independent experiments. (E) BJAB cells were transduced with retrovirus mHVEM-ires-GFP or hHVEM-ires-GFP and were stained with human IgG1 isotype control (hIgG1), mB7x-Fc, mBTLA-Fc or hBTLA-Fc followed by anti-human IgG-phycoerythrin. Numbers in dot plots show the percentage of fusion protein staining in the GFP-positive population.

In experiment [2] the target is T2, B7x extracellular domain expressed on NIH 3T3 cells (mouse, UniProt Q7TSP5 25-257).
T2 construct: also called B7x-B7h-GFP; not shown: B7h transmembrane and cytoplasmic domains fused to GFP
T2 sequence: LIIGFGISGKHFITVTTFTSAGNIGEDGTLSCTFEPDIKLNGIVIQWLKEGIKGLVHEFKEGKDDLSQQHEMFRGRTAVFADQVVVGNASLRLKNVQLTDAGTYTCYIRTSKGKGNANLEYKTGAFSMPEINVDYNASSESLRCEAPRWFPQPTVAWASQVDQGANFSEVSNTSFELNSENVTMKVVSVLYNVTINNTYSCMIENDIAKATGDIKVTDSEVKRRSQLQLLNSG
The experiment can be described thus: flow cytometry on NIH 3T3 transfectants. From the text:
(§2) To test for direct interactions between BTLA and B7x, we made NI H 3T3 cell lines stably expressing the extracellular domains of B7x, BTLA, and programmed death 1 (PD-1) and its ligand (PD-L1), and stained the cells with PD-1 and BTLA tetramers and with PD-L1 and B7x Fc fusion proteins.
(Flow cytometry measures light scatter and fluorescence of single cells or particles in a stream.)

Experiment [3] addresses T3, PD-L1 expressed on NIH 3T3 cells (UniProt Q9EP73 19-265, limits assumed).
T3 construct: domain: extracellular domains; also called PD-L1-GFP
The experiment can be described thus: flow cytometry on NIH 3T3 transfectants.
Source text: as §2

Experiment [4] concerns the target T4, C57BL/6 allele of mouse BTLA expressed on transfected cells as a GFP fusion protein (mouse, UniProt Q7TSA3 30-306).
T4 construct: also called BJAB.B6 BTLA-GFP; C57BL/6 BTLA; not shown: GFP without its start codon
T4 sequence: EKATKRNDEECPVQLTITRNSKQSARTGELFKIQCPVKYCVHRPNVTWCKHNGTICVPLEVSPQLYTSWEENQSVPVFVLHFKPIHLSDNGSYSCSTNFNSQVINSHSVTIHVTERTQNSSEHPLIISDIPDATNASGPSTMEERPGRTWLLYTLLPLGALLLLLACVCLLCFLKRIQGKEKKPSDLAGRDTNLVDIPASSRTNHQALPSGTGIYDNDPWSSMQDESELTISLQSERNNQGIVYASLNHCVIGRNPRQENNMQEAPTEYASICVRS
The experiment can be described thus: flow cytometry on NIH 3T3 transfectants.
Source text: as §2

Experiment [5] addresses T5, mouse 4-1BB expressed on transduced BJAB cells (mouse, UniProt P20334 24-256).
T5 construct: whole, on cells; also called m4-1BB; 4-1 BB-IRES-GFP
T5 sequence (looked up): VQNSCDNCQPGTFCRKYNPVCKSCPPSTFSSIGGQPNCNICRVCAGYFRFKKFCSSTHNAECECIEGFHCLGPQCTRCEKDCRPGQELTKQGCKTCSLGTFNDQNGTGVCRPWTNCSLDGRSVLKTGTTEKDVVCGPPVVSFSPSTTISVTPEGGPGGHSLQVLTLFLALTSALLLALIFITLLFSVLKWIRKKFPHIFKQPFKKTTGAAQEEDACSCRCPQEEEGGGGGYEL
The experiment can be described thus: flow cytometry on transduced BJAB cells.
Source text: as §1

Experiment [6] addresses T6, mouse LTβR expressed on transduced BJAB cells (mouse, UniProt P50284 31-415).
T6 construct: whole, on cells; also called LTI3R; mLT R
The experiment can be described thus: flow cytometry on transduced BJAB cells.
Source text: as §1

The target in a further experiment is SHP-1 (UniProt P29350 1-595). The experiment can be described thus: co-immunoprecipitation.
A further experiment concerns the target Grb2 (UniProt P62993 1-217). The experiment can be described thus: co-immunoprecipitation.
A further experiment deals with T7, SHIP (UniProt Q92835 1-1189, limits assumed).
T7 sequence (looked up): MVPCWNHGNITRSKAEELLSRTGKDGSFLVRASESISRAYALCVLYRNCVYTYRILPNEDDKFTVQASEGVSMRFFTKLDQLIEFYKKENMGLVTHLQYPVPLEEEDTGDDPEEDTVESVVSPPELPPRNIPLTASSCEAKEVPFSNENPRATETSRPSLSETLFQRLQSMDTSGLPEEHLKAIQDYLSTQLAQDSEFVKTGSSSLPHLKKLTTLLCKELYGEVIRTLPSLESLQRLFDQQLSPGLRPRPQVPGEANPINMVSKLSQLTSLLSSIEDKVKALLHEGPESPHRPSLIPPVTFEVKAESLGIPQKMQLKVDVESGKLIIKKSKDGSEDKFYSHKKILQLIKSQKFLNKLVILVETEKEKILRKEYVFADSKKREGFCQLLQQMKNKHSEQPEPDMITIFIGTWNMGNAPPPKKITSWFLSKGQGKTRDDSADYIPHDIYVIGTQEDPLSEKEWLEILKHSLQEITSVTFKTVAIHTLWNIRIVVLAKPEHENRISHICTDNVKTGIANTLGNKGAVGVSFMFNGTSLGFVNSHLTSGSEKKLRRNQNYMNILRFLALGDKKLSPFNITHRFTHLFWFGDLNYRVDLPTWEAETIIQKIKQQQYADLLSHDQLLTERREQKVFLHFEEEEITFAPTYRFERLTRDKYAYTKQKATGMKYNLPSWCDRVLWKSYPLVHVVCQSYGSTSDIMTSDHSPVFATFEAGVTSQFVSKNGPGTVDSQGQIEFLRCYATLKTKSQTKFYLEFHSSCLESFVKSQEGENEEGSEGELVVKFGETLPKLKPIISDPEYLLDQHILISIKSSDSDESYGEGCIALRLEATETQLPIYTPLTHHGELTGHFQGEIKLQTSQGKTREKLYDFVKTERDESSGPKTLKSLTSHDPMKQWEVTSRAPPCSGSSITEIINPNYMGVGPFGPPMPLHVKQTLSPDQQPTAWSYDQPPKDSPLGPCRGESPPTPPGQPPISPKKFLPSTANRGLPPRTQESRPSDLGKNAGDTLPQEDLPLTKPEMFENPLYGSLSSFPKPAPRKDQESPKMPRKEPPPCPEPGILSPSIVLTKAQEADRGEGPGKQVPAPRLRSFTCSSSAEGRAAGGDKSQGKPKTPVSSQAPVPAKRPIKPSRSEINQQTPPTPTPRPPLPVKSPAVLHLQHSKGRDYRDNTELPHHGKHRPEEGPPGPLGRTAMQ
The experiment can be described thus: co-immunoprecipitation.

T6 sequence (P50284 31-415): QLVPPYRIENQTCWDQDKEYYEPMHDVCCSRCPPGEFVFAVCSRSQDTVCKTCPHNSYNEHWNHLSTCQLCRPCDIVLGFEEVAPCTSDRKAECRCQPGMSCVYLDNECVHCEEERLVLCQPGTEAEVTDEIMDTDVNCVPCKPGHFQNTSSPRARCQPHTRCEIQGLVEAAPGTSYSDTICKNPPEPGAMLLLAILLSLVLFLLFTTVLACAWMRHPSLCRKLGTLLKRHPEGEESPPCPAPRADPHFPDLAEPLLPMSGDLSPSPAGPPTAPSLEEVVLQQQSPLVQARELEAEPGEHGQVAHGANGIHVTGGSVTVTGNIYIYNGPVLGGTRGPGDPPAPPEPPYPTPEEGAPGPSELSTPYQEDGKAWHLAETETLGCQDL
Sequence of SHP-1 (P29350 whole entry): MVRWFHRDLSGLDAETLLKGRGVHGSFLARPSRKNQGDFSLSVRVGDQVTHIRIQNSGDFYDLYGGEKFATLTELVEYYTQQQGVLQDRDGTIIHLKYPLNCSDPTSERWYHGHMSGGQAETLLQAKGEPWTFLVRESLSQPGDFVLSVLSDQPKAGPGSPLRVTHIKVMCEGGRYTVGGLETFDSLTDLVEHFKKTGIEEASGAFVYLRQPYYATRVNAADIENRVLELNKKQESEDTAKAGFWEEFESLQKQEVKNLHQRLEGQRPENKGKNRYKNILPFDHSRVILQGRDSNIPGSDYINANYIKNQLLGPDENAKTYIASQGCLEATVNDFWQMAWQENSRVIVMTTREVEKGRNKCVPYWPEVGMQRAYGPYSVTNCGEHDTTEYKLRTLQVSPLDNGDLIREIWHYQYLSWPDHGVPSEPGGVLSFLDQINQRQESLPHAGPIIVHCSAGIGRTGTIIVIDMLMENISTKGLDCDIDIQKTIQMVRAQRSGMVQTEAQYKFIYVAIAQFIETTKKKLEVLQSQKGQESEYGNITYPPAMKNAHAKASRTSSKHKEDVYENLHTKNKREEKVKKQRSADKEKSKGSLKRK
Sequence of Grb2 (P62993 whole entry): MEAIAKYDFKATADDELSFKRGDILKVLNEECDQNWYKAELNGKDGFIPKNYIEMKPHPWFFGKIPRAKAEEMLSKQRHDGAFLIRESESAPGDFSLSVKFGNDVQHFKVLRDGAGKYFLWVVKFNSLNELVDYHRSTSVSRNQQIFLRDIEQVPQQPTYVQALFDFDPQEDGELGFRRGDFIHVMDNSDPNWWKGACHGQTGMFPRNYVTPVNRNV
T3 sequence (Q9EP73 19-265 limits assumed): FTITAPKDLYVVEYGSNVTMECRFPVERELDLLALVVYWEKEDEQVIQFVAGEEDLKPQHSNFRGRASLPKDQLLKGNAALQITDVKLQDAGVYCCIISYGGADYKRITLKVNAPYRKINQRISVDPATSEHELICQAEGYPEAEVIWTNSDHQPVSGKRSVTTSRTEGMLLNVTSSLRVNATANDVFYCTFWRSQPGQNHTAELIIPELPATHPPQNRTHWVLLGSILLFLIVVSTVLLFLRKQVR

B1: mouse BTLA-Fc fusion protein (Fc fusion)
chain: EKATKRNDEECPVQLTITRNSKQSARTGELFKIQCPVKYCVHRPNVTWCKHNGTICVPLEVSPQLYTSWEENQSVPVFVLHFKPIHLSDNGSYSCSTNFNSQVINSHSVTIHVTERTQNSSEHPLIISDIPDATNAS
notes: also called mBTLA-Fc; not shown: Fc-αTP part of the CD47-Fc-αTP-ires-GFP-RV vector (detected with anti-human IgG)
As for B1, the binding result in [1] is “no binding (tested: 200 ng of purified Fc-fusion protein)”.

B2: mouse BTLA tetramer (allele not stated at these places) (other, UniProt Q7TSA3 30-166, looked up)
chain: EKATKRNDEECPVQLTITRNSKQSARTGELFKIQCPVKYCVHRPNVTWCKHNGTICVPLEVSPQLYTSWEENQSVPVFVLHFKPIHLSDNGSYSCSTNFNSQVINSHSVTIHVRERTQNSSEHPLITVSDIPDATNA
modifications: biotinylated; bound to streptavidin-phycoerythrin
notes: domain: BTLA Ig domain; also called BTLA tetramers; tetramers of mouse BTLA
Turning to B2, the binding result in experiment [2], in experiment [3] and in experiment [1] was “no binding” in each case.

B3: mB7x-Fc fusion protein (Fc fusion)
chain: T2 sequence
notes: not shown: Fc-αTP part of the CD47-Fc-αTP-ires-GFP-RV vector (detected with anti-human IgG)
Take B3: the binding result in experiment [4] was “no binding”; in experiment [1] it was “no binding (tested: 200 ng of purified Fc-fusion protein)”.

B4: BALB/c BTLA tetramer-phycoerythrin (other)
chain: DEECEVQLNIKRNSKHSAWTGELFKIECPVKYCVHRPNVTWCKHNGTIWVPLEVGPQLYTSWEENRSVPVFVLHFKPIHLSDNGSYSCSTWFWSQVINSHSVTIHVR
modifications: biotinylated in vitro with BirA ligase; bound to streptavidin-phycoerythrin
notes: also called BALB-BTLA pET28 product; not shown: biotinylation tag of the MLL1-pET28 vector
As for B4, the binding result in [5], in experiment [6] and in experiment [1] was “no binding” throughout.

B5: Myc-tagged full length human BTLA, tyrosine-phosphorylated (pervanadate) (receptor)
chain: KESCDVQLYIKRQSEHSILAGDPFELECPVKYCANRPHVTWCKLNGTTCVKLEDRQTSWKEEKNISFFILHFEPMLPNDNGSYRCSANFQSNLIESHSTTLYVTDVKGASERPSKDEVASRPWLLYSLLPLGGLPLLITTWFCLFCCLRRHQGKQNELSDTAGREINLVDAHLKSEQTEASTRQNSQVLLSEAGIYDNDPDLCFRMQEGSEVCSNPCLEENKPGIVYASLNHSVIGLNSRLARNVKEAPTEYASICVRS
modifications: tyrosine-phosphorylated after pervanadate treatment (Y226, Y257, Y282 are the tyrosines studied)
notes: Expressed in Jurkat T cells; also called myc-hBTLA; Myc3-hBTLA; not shown: triple Myc tag inserted downstream of the signal peptide
With B5, the binding result with SHP-1, with Grb2 and in the experiment with SHIP was “no binding” each time.

B6: C57BL/6 BTLA tetramer-phycoerythrin (other)
chain: EKATKRNDEECPVQLTITRNSKQSARTGELFKIQCPVKYCVHRPNVTWCKHNGTICVPLEVSPQLYTSWEENQSVPVFVLHFKPIHLSDNGSYSCSTNFNSQVINSHSVTIHVTERTQNSSEHPLIISDIPDATNASGGGLNDIFEAQKIEWHE
modifications: biotinylated in vitro with BirA ligase on the C-terminal BirA sequence; bound to streptavidin-phycoerythrin
notes: also called B6-BTLA pET28 product
Consider B6, for which the binding result in [5], in experiment [6] and in [1] was “no binding” each time.

B7: human BTLA-Fc fusion protein (Fc fusion)
chain: KESCDVQLYIKRQSEHSILAGDPFELECPVKYCANRPHVTWCKLNGTTCVKLEDRQTSWKEEKNISFFILHFEPMLPNDNGSYRCSANFQSNLIESHSTTLYVTDVKGASERPSKDEVA
notes: Used as 1 ml of supernatant for staining; also called hBTLA-Fc; not shown: Fc-αTP part of the CD47-Fc-αTP-ires-GFP-RV vector (detected with anti-human IgG)
B7: the binding result in [1] was “binds”.
